Experimental data published in patent publication US7919295B2, “Polyol oxidases” (Danisco US Inc., priority 2006, dated 2011).

Legend:
[1] = cited from earlier work
[2] = Stability and bleaching performance of SOx in HDL laundry wash conditions
Description: In this Example, methods to determine the stability and bleaching performance of SOx (produced as described above) in AATCC liquid detergent laundry wash conditions are described. In these experiments, AATCC standard detergent (American Association of Textile Chemists and Colorists Heavy Duty Liquid Detergent Version 2003 without brightener; key components include linear alkane sulfonate, alcohol ethoxylate, propanediol, citric acid, fatty acid, castic soda and water; Testfabrics) was used.
Three bleachable cotton swatches with juice (STC CFT CS-15), wine (STC CFT CS-3), and tea (STC CFT BC-3) were used. The swatches were cut into 15 mm circles with a textile punch (Model B equipped with a ⅝″ die cutter; Model 93046; NAEF).
Single swatch disks were placed into each well of a 24-well microplate (Costar 3526). One (1) ml of washing solution pH 8, containing per liter, 1.5 ml AATCC HDL detergent, 75-100 mM sorbitol, 6 gpg hardness (diluted from stock 15000 gpg hardness solution containing 1.735 M calcium chloride and 0.67 M magnesium chloride), and 0.05% TAED (tetraacetylethylenediamine, Fluka) was added to each well. Five to fifty (5-50 ul) microliters of partially purified sorbitol oxidase or sorbitol oxidase obtain from a late fermentation run (108 hr EFT “effective fermentation time”) produced as described in Examples 1 and 2, were added with a positive displacement pipette to 3-8 wells in one column. The control wells contained no enzyme. The microplate was covered with a plastic lid and aluminum foil and incubated at 37° C. with 100 rpm gentle rotation for 14 hr. […]
One hundred microliters (100 ul) of 0.1 mM sodium carbonate were added to each well to elevate the pH to 10. […] The disks were inspected visually and then analyzed with a Reflectometer CR-200 (Minolta) calibrated on a standard white tile. The average L values were calculated as was the percent soil release (% SR=100%×(Final reflectance-Initial reflectance)/(Reflectance of a white standard-Initial reflectance). Graphs showing the results of these experiments are provided in FIGS. 5-8.

[3] = Substrate range study: SCO6147 SOx activity on D-sorbitol versus D-xylitol; assay type: biochemical, Streptomyces lividans; settings: SOx transformed in S. lividans; substrates 50 mM, pH 7.0
Protocol: Sorbitol oxidase obtained using the methods described in Example 1, was tested for finding its activity with various polyol substrates. All substrates used in the assay were 50 mM in 10 mM phosphate buffer pH 7.0. The relative activity using sorbitol as (++++++=100%) is shown below in Table 3.

B1: sorbitol oxidase from Streptomyces species H-7775: sorbitol oxidase of Streptomyces species H-7775, Genbank AB000519, 420 amino acids (protein)
chain: MTPAEKNWAGNITFGAKRLCVPRSVRELRETVAASGAVRPLGTRHSFNTVADTSGDHVSLAGLPRVVDIDVPGRAVSLSAGLRFGEFAAELHARGLALANLGSLPHISVAGAVATGTHGSGVGNRSLAGAVRALSLVTADGETRTLRRTDEDFAGAVVSLGALGVVTSLELDLVPAFEVRQWVYEDLPEATLAARFDEVMSAAYSVSVFTDWRPGPVGQVWLKQRVGDEGARSVMPAEWLGARLADGPRHPVPGMPAGNCTAQQGVPGPWHERLPHFRMEFTPSNGDELQSEYFVARADAVAAYEALARLRDRIAPVLQVSELRTVAADDLWLSPAHGRDSVAFHFTWVPDAAAVAPVAGAIEEALAPFGARPHWGKVFSTAPEVLRTLYPRYADFEELVGRHDPEGTFRNAFLDRYFRR
modifications: Streptomyces H-7775
notes: sorbitol oxidase of Streptomyces species H-7775, Genbank AB000519, 420 amino acids
For B1, the “pH range in which enzyme is stable” value ([1]; 24 hours at 30° C.) is given as 7.5-10 pH and the optimum temperature ([1]; at pH 7.5) is given as 50 °C.

B2: sorbitol oxidase: partially purified sorbitol oxidase or fermentation broth cell lysate (108 hr EFT) used for biobleaching (protein)
chain: B1 chain
modifications: Streptomyces H-7775
notes: partially purified sorbitol oxidase or fermentation broth cell lysate (108 hr EFT) used for biobleaching
With B2 the “stability in typical liquid detergent system” value ([2]; AATCC HDL detergent, pH 8, 37° C., 14 hr) was “stable”, the “hydrogen peroxide production in detergent” value ([2]; in presence of sorbitol mixed with detergent and atmospheric oxygen) was “able to produce effective concentration of hydrogen peroxide” and the “bleaching of colored stains” value ([2]; with bleach booster TAED, blueberry, tea and wine stains, FIGS. 5-8) was “able to help bleach”.

B3: POx of SEQ ID NO:4: sorbitol oxidase of Streptomyces lividans, gene identified from S. coelicolor SCO6147, expressed intracellularly in S. lividans g3s3 (protein)
chain: MGDITVTNWAGNITYTAKELLRPHSLDALRALVADSARVRVLGSGHSFNEIAEPGDGGVLLSLAGLPSVVDVDTAARTVRVGGGVRYAELARVVHARGLALPNMASLPHISVAGSVATGTHGSGVGNGSLASVVREVELVTADGSTVVIARGDERFGGAVTSLGALGVVTSLTLDLEPAYEMEQHVFTELPLAGLDPATFETVMAAAYSVSLFTDWRAPGFRQVWLKRRTDRPLDGFPYAAPAAEKMHPVPGMPAVNCTEQFGVPGPWHERLPHFRAEFTPSSGAELQSEYLMPREHALAALHAMDAIRETLAPVLQTCEIRTVAADAQWLSPAYGRDTVAAHFTWVEDTAAVLPVVRRLEEALVPFAARPHWGKVFTVPAGELRALYPRLADFGALAGALDPAGKFTNAFVRGVLAG
modifications: Streptomyces lividans
notes: sorbitol oxidase of Streptomyces lividans, gene identified from S. coelicolor SCO6147, expressed intracellularly in S. lividans g3s3
For B3, the “activity on D-sorbitol relative to D-xylitol” value [3] was 2.1 times.
